This is an account of results in paper PMC11014985, “TCTP regulates genotoxic stress and tumorigenicity via intercellular vesicular signaling”.

Data set [1] has as its target T1, TCTP (UniProt P13693 1-172).
T1 sequence: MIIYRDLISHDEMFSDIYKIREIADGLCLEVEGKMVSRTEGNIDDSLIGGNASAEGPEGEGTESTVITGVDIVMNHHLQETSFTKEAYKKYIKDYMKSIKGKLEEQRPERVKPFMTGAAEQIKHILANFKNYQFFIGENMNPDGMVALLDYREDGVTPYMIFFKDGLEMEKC
Nature of the data set: EMSA; 50 nM RNA, increasing TCTP; pH 7.5; EMSA: RNA01 at pH 7.5, 6% native PAGE at 4 C; let-7c-5p 50 nM, proteins preincubated 20 min then 25 min on ice, ATP or AMP-PNP (5 mM), NativePAGE 3-12% Bis-Tris. As to conditions: protein: recombinant; label: 5'-Cy5; single strand. Background: Mobility shift assays separate free from complexed probe on a gel.

The target of data set [2] is Ded1 (DEAD-box helicase) (yeast, UniProt P06634 1-604). The data set can be described thus: EMSA; 50 nM RNA; positive control; AMP-PNP; EMSA: RNA01 at pH 7.5, 6% native PAGE at 4 C; let-7c-5p 50 nM, proteins preincubated 20 min then 25 min on ice, ATP or AMP-PNP (5 mM), NativePAGE 3-12% Bis-Tris. As to conditions: protein: recombinant; label: 5'-Cy5; single strand.
Ded1 (DEAD-box helicase), sequence (P06634 whole entry): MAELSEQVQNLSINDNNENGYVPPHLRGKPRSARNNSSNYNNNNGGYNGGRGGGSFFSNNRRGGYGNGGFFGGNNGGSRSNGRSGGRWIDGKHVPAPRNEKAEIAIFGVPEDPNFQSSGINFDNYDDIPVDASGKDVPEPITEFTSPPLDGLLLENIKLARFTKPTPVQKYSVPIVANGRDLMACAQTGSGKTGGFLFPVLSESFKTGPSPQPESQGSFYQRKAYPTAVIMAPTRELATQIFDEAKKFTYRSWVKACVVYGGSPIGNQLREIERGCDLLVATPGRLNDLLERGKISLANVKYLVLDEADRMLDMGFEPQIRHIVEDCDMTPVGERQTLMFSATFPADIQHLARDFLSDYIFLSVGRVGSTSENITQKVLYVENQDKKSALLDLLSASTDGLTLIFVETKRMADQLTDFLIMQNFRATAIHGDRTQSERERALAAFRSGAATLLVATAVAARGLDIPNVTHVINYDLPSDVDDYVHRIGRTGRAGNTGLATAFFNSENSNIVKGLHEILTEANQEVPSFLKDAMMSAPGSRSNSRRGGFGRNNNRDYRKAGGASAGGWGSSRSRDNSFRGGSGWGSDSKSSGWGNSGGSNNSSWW
The target of data set [3] is DDX3-WT (human, UniProt O00571 1-662). Nature of the data set: EMSA; 300 nM DDX3, 50 nM RNA; ATP or AMP-PNP (nucleotide not specified for outcome); EMSA: RNA01 at pH 7.5, 6% native PAGE at 4 C; let-7c-5p 50 nM, proteins preincubated 20 min then 25 min on ice, ATP or AMP-PNP (5 mM), NativePAGE 3-12% Bis-Tris. As to conditions: protein: recombinant; single strand.
DDX3-WT, sequence (O00571 whole entry): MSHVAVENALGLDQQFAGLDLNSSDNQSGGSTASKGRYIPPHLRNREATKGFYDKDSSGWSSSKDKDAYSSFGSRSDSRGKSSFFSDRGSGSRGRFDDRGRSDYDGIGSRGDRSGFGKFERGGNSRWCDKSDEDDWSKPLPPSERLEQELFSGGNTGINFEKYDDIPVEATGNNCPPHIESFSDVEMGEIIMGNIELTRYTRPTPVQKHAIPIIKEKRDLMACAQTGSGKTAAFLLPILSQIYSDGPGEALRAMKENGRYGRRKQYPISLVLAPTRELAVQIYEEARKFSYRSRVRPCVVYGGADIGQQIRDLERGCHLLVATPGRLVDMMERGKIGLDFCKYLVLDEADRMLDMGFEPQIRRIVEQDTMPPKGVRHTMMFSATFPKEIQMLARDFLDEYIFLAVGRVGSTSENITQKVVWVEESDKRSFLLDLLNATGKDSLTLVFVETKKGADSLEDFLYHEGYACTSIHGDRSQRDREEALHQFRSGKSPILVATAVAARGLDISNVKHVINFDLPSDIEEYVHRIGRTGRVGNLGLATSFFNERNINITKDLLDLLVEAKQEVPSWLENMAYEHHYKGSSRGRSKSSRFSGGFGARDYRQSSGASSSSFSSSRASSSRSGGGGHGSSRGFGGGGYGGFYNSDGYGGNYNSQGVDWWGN
Data set [4] addresses T1, TCTP. The data set can be described thus: EMSA; 500 nM TCTP, 50 nM RNA; ATP or AMP-PNP; EMSA: RNA01 at pH 7.5, 6% native PAGE at 4 C; let-7c-5p 50 nM, proteins preincubated 20 min then 25 min on ice, ATP or AMP-PNP (5 mM), NativePAGE 3-12% Bis-Tris. As to conditions: protein: recombinant; single strand.

For UCAUACUUUUCUUUUCUUUUCCAUC (ssRNA) [RNA01], the binding result was “no binding” in data set [1] and “binds” in data set [2].
With UGAGGUAGUAGGUUGUAUGGUU (ssRNA) [let-7c-5p], the binding result in data set [3] is reported as “binds”; in data set [4] it was “no binding”.
